US20230416785A1, “NUCLEASE AND APPLICATION THEREOF” (CRISP-HR Therapeutics, Inc., priority 2020, published 2023)

What was measured:
[1] = test system: H1299 cells; test: Cellular viability of transfected H1299 cells (resazurin assay); type: cell-based, human; details: for cellular viability compared to RLucRT alone: H1299 cells, AAVS1 G1 or G2 plus RLucRT, two days
Excerpt: Next the viability of transfected cells was quantified via resazurin after two days, then cells were washed with PBS, then lysed and luminescence quantified via plate reader (FIG. 4B). […] Next Luminescence was quantified via the Renilla-Glo Luciferase Assay System (Promega) using a 96 well plate reader with luminescence capabilities (Tecan). After data collection, raw luminescence was background subtracted from non-transfected control cells, corrected for cellular viability, and plotted in FIG. 4D.
(§1) Unless otherwise noted, adherent cells (A549 or H1299) were seeded in 96 well plates and grown in either 50/50 F-12/DMEM or RPMI-1640 respectively, supplemented with 5% FBS and grown to roughly 70% confluency. Cells were then transfected with either Cal-Phos as described in Chen 2012 or Lipofectamine 3000 (Thermofisher). Fresh media was exchanged the next day and cellular viability was quantified on day 2.
(§2) 20 μL of 0.15 mg/mL Resazurin solution was added to cells either plated in 96 well plates for all cell lines, which were then incubated for ˜4 hours at 37° C. Cellular toxicity was quantified using a Tecan SpectraFlour Plus plate reader (Tecan) using a 535/595 filter set. Raw data was then normalized to the mean of the untransfected controls and plotted as described.
After two days, cellular viability was quantified via Resazurin, then washed with PBS and lysed with 25 μL of cell lysis buffer, and luciferase activity was quantified via Renilla Luciferase Assay (Promega) and using a Tecan Infinite Mplex plate reader.

[2] = test system: U2OS cells; test: RPA foci quantification in U2OS cells; type: cell-based, human
Description: After two days cells, cells were prepared for imaging as in Murkherjee et al 2015. Cytoplasm was extracted via two sequential 10 minute washes on ice consisting of Extraction Buffer 1: 10 mM PIPES, pH 7.0; 100 mM NaCl; 300 mM Sucrose; 3 mM MgCl2; 1 mM EGTA, 0.5% Triton X-100 and Extraction Buffer 2: 10 mM Tris-HCl, pH 7.5; 10 mM NaCl; 3 mM MgCl2, 1% Tween 40, 0.5% sodium deoxycholate. Cells were then fixed using 4% PFA for 20 minutes at RT, then washed three times with PBST, blocked in 5% goat-serum for 30 minutes at RT, then incubated overnight at 4° C. with 1:1000 dilution of mouse anti-RPA (Calbiochem; Catalog no: NA191). Next day cells were washed 5× with PBST with 20 minutes per wash, then incubated overnight at 4° C. with a 1:1000 dilution of anti-mouse Alexa fluor 568 (Thermo Fisher). Cells were washed next day cells were washed 5× with PBST with 20 minutes per wash, then mounted in Vectashield with DAPI (Vector Labs; Catalog no: H-1200), and imaged at 10× using an Leica Stellaris Confocal Microscope. Foci per cell were quantified using a custom script to identify number of RPA foci per cell. […] After two days cells were fixed, then cytoplasm extracted on ice, then remaining nuclei were stained for RPA. At the end of staining, nuclei were labeled with DAPI and cells were imaged via confocal microscopy. Post-imaging nuclei identification and RPA thresholding allowed quantification of the number of RPA foci per nuclei.

[3] = test system: A549 cells; test: Cellular toxicity / viability of transfected A549 cells (resazurin assay); type: cell-based
Description: A549 cells were chosen as they are both facile to grow and transfect, cost effective in terms of media and other reagents, and importantly have retained a functional p53 gene.
Cells were then allowed to recover for one additional day, after which viability was cells were incubated with resazurin (Millipore Sigma) for 4 hours, after which fluorescence was quantified by a plate reader (Perkin Elmer).
as §1, §2
as §2, with “described. […] Stats: All two-sided students T-test with unequal variance.” for “described.”

[4] = test system: endogenous H2B; test: H2B-mNeon knock-in HDR quantification in K562 cells; type: cell-based, human; details: H2B-mNeon RT
Description: After two days, cells were fixed in 4% PFA washed in PBS, then directly imaged, with cells showing nuclear localized fluorescence counted as successful HDR events.
K562 were grown in 24 well plates with RPMI-1640 supplemented with 5% FBS until roughly 70% confluent. At that time cells were either electroporated using the mNeon system (Invitrogen) using optimized settings for K562 cells, or lipofectamine 3000 again following manufactures instructions. Cells were then returned to 24 well plates with fresh media and grown for at least two days before being used in downstream analysis.
After 2 days, cells attached to coverslips coated with 0.01% poly-1-lysine, and were fixed in 4% PFA (Thermofisher) for 15 minutes at RT. After fixation, cells were washed 3× in PBS, mounted in 50% glycerol and imaged on a Nikon Eclipse E600 with standard FITC filters. For quantification, random patches of cells (usually between 8-15 cells per image) were identified via Brightfield, then fluoresce images were taken with constant illumination and exposure time (100%, and 110 ms respectively).

[5] = test system: Safe Harbor Site (SHS)-231; test: SHS-231 mNeon knock-in in H1299 cells; type: cell-based, human
Excerpt: After reaching confluency, cells were tryspinized and seeded in 6 well plates, which were then imaged at 10× magnification using a Leica THUNDER Epifluorescent microscope. After imaging, thresholds and ROIs for mNeon+ cells were generated using FIJI (ImageJ).
After 7 days, cells were tryspinized and transferred to 6 well plates, and grown for an additional 7 days. On Day 14, media was replaced with HBSS (to reduce background for imaging) and imaged using a Cytation5 imaging system. Imaging was performed by taking a 6×6 stitched image in the middle of the well using an 10× magnification lens, where both brightfield and RFP images were acquired. HDR rates were quantified via ImageJ, two independent replicates were performed per treatment.

[6] = test system: intergenic region on Chromosome 6 (Int-G2, Int-G3); test: PuroRT HDR quantification in K562 cells (puromycin survival); type: cell-based, human
Description: The target integration site is approximately ˜1 kb to the 3′ end of the human H2B gene on Chromosome 6, an intergenic region which has no predicted genes or long non-coding RNA.
Next, to assay HDR rates, K562 cells were again used instead of A549 cells, as the lack of a functional p53 gene should help to deconvolute HDR rates from cellular toxicity effects. […] After two days, DNA was extracted from ˜ 1/10 of surviving cells and used for analysis of Puro RT genomic integration. The next day, 0.5 mg/mL puromycin was added, and after three days cellular survival was quantified via resazurin assay as described previously.
After two days, 1/10 of cells were taken for DNA extraction, while the rest were treated with 0.5 μg/mL puromycin. Cells were grown for a further 3 days then viability quantified via Resazurin assay.

[7] = test system: CDH1; test: CDH1:mCherry knock-in in HEK293 cells; type: cell-based, human; details: Ecad-G1
Description: After three days, media was replaced with HBSS (to reduce background for imaging) imaged using an Cytation5 imaging system. Imaging was performed by taking a 6×6 stitched image in the middle of the well using an 10× magnification lens, where both brightfield and RFP images were acquired. HDR rates were quantified via ImageJ, two independent replicates were performed per treatment. FIG. 13A illustrates a Cadherin1:mCherry RT design showing the human genomic region surrounding the last exon (exon 16) of Cadherin1. Two different gRNAs are denoted by black arrows (G1, G2), with arrow direction indicating the targeted strand. A repair template was constructed containing about 750 bp long 5′ and 3′ Homology arms, exon 16 of Cadherin1, silent mutations introduced to prevent gRNA binding to the RT, and a direct fusion of the fluorescent protein mCherry. FIG. 13B illustrates quantification of Cadherin1:mCherry HDR rate in H1299 cells showing the average mCherry+ cells per image section (>10 for all conditions) imaged at day 3 post transfection.

[8] = SHS-231, hH2B-G4 or B-Catenin1, vs non-treated control cells
[9] = SHS-231 G1, 14 Days, stitched images

Cas9-HR 8: hExo1(1-352)-Cas9 fusion of FIG. 1A; E. coli codon optimized vectors SEQ ID NO: 68 and 69
toxicity in H1299 cells compared to A549 ([1]; H1299 cells (lack functional p53 gene), H2B-G4 guide): small reduction
cellular viability compared to RLucRT alone [1]: slightly reduced
cellular viability compared to RLucRT alone ([1]; listed as Cas9-HR8): no gross changes in cellular viability
percent cells with 1-10 RPA foci [2, 8]: increased the percentage of cells with RPA foci
percent cells with any RPA foci [2, 8]: increased the percentage of cells with RPA foci
percent cells with 11-100 RPA foci compared to Cas9 ([2]; targeting hH2B and Beta-Catenin1): significant decrease in cells with 11-100 RPA foci
cellular viability relative to Cas9 ([3]; Cadherin1 G1 or G2, Day 2 post transfection): significant increases in cellular viability
cellular toxicity compared to Cas9 ([3]; H2B-G4 guide, lipofectamine 3000): significant reduction in cellular toxicity
cellular toxicity ([3]; Int-G2 and Int-G3, CalPhos): dramatic reduction in cellular toxicity
cellular viability relative to Cas9 ([3]; SHS-231 G1, G2 or G3, Day 2 post transfection): significant increases in cellular viability
PCR of 5′ and 3′ knock-in junctions ([4]; genome specific plus RT specific primers): Successful amplification
HDR rate (cells with nuclear localized mNeon fluorescence) ([4]; hH2B-G4, two days, compared to Cas9-HR 4 or Cas9): significant increase in HDR rate
cellular fluorescence (expression) levels of mNeon+ cells compared to Cas9 ([5]; 14 days): much more uniform and lower expression levels
absolute numbers of mNeon+ cells ([5]; SHS-231-G1, SHS-231-mNeon RT, 14 days post-transfection): 3652
mNeon cell counts normalized to Cas9 ([5]; SHS-231-G2, two independent experiments): increase of HDR rates
GFP+ cells compared to Cas9 [5, 9]: significantly more GFP+ cells
total cells compared to Cas9 [5, 9]: significantly more total cells
PCR of genomic integration of Puro RT at 5′ and 3′ ends [6]: successful integration of the repair template
HDR rates compared to Cas9 (normalized knock-in rates) [7]: ~3.5 ×
absolute mCherry+ cells relative to Cas9-NT or repair template alone [7]: significant increases in mCherry+ cells
numbers of mCherry+ cells compared to repair template [7]: significantly increased numbers of mCherry+ cells
